Where a chain is given by its changes, count along the chain named.

Consider six molecules from US20250325718A1, “IMMUNOCONJUGATES COMPRISING KALLIKREIN RELATED PEPTIDASE 2 ANTIGEN BINDING DOMAINS AND THEIR USES” (Janssen Biotech, Inc., priority 2021, published 2025).

Data set [1] can be described thus: Thermal stability by Differential Scanning Fluorimetry (NanoDSF). The format is physicochemical. The settings on record: 0.5 mg/mL in Phosphate Buffered Saline pH 7.4, 20-95 ° C. at 1.0 ° C./minute. As to the method: Thermal stability was determined by Differential Scanning Fluorimetry (NanoDSF) using an automated Prometheus instrument. NanoDSF was used to measure Tm of molecules at a concentration of 0.5 mg/mL in Phosphate Buffered Saline, pH 7.4. Measurements were made by loading samples into 24 well capillary from a 384 well sample plate. Duplicate runs were performed for each sample. The thermal scans span from 20° C., to 95° C. at a rate of 1.0° C./minute. Intrinsic tryptophan and tyrosine fluorescence were monitored at the emission wavelengths of 330 nm and 350 nm, and the F350/F330 nm ratio were plotted against temperature to generate unfolding curves.

Another data set addresses soluble hK2 (Homo sapiens, UniProt P20151). The experiment in a line: Affinity of hK2 antibodies for soluble hK2 by surface plasmon resonance (SPR). The format is binding. Conditions: antibody captured on anti-Fc chip, soluble hK2 injected, 1:1 Langmuir fit, KD = koff/kon. As to the method:
Affinity of selected hK2 antibodies for soluble hK2 was measured by surface plasmon resonance (SPR). SPR is a label-free technique to study the strength of an interaction between two binding partners by measuring the change in mass upon complex formation and dissociation. Antibodies were captured on a sensor chip coated with an anti-Fc antibody followed by injection of soluble hK2 at various concentrations and specified association and dissociation times. Post dissociation, the surface was regenerated with an appropriate solution to prepare for the next interaction. Kinetic information (on-rate and off-rate constants) were extracted by fitting sensorgrams to the 1:1 Langmuir model. Binding affinity (KD) are reported as the ratio of rate constants (koff/kon).

The test system of the next data set is hK2-positive VCaP cells. Kind of data set: Target cell binding by flow cytometry, hK2-positive cells. The class given is cell-based. The settings on record: 4° C. 60 minutes, anti-Human F(ab′)2 secondary detection, live cells. An excerpt: To evaluate target cell binding of the KL2B30 Fab with different conjugation variants, VCaP cells were used as hK2-positive target cells and DU145 cells were used as hK2-negative cells. KL2B30 parental antibody (comprising a heavy chain and light chain of SEQ ID NO: 210 and SEQ ID NO: 221, respectively) and hul1B6 (an anti-hK2 antibody, also referred to herein as h11B6, comprising a heavy chain and light chain of SEQ ID NO: 203 and SEQ ID NO: 215, respectively) were included as positive controls. The h11B6 antibody is described in U.S. Pat. No. 10,100,125, which is incorporated by reference herein. An anti-Human F(ab′)2 fragment specific secondary detection antibody was used for detecting Fab-based binding. Test antibodies were incubated with target cells at 4° C. for 60 minutes and detected by secondary staining. Cell binding was quantified by flow cytometry based on secondary antibody binding signal and gated from on live cells.

Chain of soluble hK2 (P20151 25-261): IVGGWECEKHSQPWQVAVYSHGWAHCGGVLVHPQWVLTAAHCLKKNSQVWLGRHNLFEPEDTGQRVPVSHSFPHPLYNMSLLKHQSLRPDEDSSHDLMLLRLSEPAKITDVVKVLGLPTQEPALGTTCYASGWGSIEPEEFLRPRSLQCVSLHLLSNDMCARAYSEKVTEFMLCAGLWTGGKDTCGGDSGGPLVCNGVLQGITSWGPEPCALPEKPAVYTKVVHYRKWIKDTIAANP

B1: KL2B53 (Fab): anti-hK2 antibody; VH SEQ ID NO: 164, VL SEQ ID NO: 165 (antibody, V domains shown)
VH: EVQLVESGGGVVQPGRSLRLSCVASGFTFSSYDIHWVRQAPGKGLEWVAIISYDGSKKDYTDSVKGRFTISRDNSKNTLYLQMDSLRVEDSAVYSCARESGWSHYYYYGMDVWGQGTMVTVSS
VL: DIVMTQSPSSLSASVGDRVTITCRASQDISNYLAWYQQKPGKVPKFLIYAASTLHSGVPSRFSGSGSGTDFTLTISSLQPEDVATYYCQKYNSAPYTFGQGTRLEIK
B1: the “Tm (° C.)” value in data set [1] was more than 70 °C.

B2: KL2B413 (scFv-LH-Fc): anti-hK2 antibody from Ablexis mice immunization; VH SEQ ID NO: 137, VL SEQ ID NO: 138 (protein)
chain 1: EVQLVESGGGLVQPGGSLRLSCAASGFTFSSYWMTWVRQAPGKGLEWVANIKQDGSERYYVDSVKGRFTISRDNAKNSLYLQMNSLRAEDTAVYYCARDQNYDILTGHYGMDVWGQGTTVTVSS
chain 2: EIVLTQSPSFLSASVGDRVTITCRASQGISSYLSWYQQKPGKAPKLLIYATSTLQSGVPSRFSGSGSGTEFTLTISSLQPEDFATYYCQQLNSYPRTFGQGTKVEIK
Regarding B2, the Kd with soluble hK2 was 34.3 nM; with soluble hK2 (listed as KL2B413 scFv), approximately 34 nM.

B3: KL2B997 SORT: KL2B997 site-specific ADC prepared via the sortase tag with Gly3-vcMMAF (conjugate)
heavy: QVQLQESGPGLVKPSETLSLTCTVSGGSISSYYWSWIRQPPGKGLEWIGYIYYSGSTNYNPSLKSRVTISVDTSKNQFSLKLSSVTAADTAVYYCAGTTIFGVVTPNFYYGMDVWGQGTTVTVSS
light: B2 chain 2 with E1D, V3Q, L4M, S34A, L46F, T51A, R96L, Q100G
modifications: left off: a dimerising Fc or GST; large carriers
notes: KL2B997 site-specific ADC prepared via the sortase tag with Gly3-vcMMAF
On to B3, for which the “cell binding to hK2-positive VCaP cells” value in the data set on hK2-positive VCaP cells was “positive and dose-dependent cell binding”.

B4: KL2B242 (Fab): anti-hK2 antibody; VH SEQ ID NO: 166, VL SEQ ID NO: 167 (antibody, V domains shown)
VH: QVQLQESGPGLVKPSETLSLTCTVSGGSISSYYWSWLRQPAGSGLEWIGRLYVSGFTNYNPSLKSRVTLSLDPSRNQLSLKLSSVTAADTAVYYCAGDSGNYWGWFDPWGQGTLVTVSS
VL: SYELTQPPSVSVSPGETASITCSGDQLGENYACWYQQKPGQSPVLVIYQDSKRPSGIPERFSGSNSGNTATLTISGTQALDEADYYCQAWDNSIVVFGGGTKLTVL
B4: the “Tm (° C.)” value in data set [1] is more than 70 °C.

B5: KL2B359 (scFv-LH-Fc): anti-hK2 clone from the re-humanization campaign of 11B6; VH SEQ ID NO: 139, VL SEQ ID NO: 140 (protein)
scFv: EIVLTQSPATLSLSPGERATLSCRASESVEYFGTSLMHWYQQKPGQPPRLLIYAASNVESGIPARFSGSGSGTDFTLTISSVEPEDFAVYFCQQTRKVPYTFGGGTKVEIKGGSEGKSSGSGSESKSTGGSQVQLQESGPGLVKPSQTLSLTCTVSGNSITSDYAWNWIRQFPGKRLEWIGYISYSGSTTYNPSLKSRVTISRDTSKNQFSLKLSSVTAADTAVYYCATGYYYGSGFWGQGTLVTVSS
modifications: left off: a dimerising Fc or GST; small tags and cut ends
As for B5, in data set [1], the “Tm (° C.)” value came to 67 °C.

B6: KL2B467 (Fab): anti-hK2 antibody from OmniRat immunization; VH SEQ ID NO: 168, VL SEQ ID NO: 169 (antibody, V domains shown)
VH: QVQLVESGGGVVQPGRSLRLSCAASGFTFSYYGMHWVRQAPGKGLEWVAFISYDGSNKYYADSVKGRFTISRDNSKNTLYLQMNSLRAEDTAVYYCAHLPYSGSYWAFDYWGQGTQVTVSS
VL: QSVLTQPPSVSVAPGQTASITCGGDNIGSKSVHWYQQKPGQAPVLVVYDNSDRPSGIPERFSGSNSGTTATLTISRVEAGDEADYYCQVWDSSSDHPVVFGGGTKVTV
Take B6: the “Tm (° C.)” value in data set [1] was more than 70 °C.
